Reference: the supplement of paper PMC9170038

Legend:
MS2 coat protein [1] = test: apparent KD of MS2 coat protein, switch ON state; designed switch direction (-1 OFF switch, 1 ON switch): -1; higher = weaker reporter binding; settings: FMN input: 0 or 200 uM; Eterna round: R93 (includes R88 designs)
Summary of the method: (§1)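 Titration buffer: 100 mM Tris-HCl pH 7.5, 80 mM KCl, 4 mM MgCl2, without or with constant ligand. Designed RNA switches transcribed on-chip from Illumina sequencing clusters received SNAP-549-labelled MS2 coat protein in twofold steps from 0.7 or 1.5 nM to 3 µM. Apparent KD is the median per design of fits to normalised cluster binding curves.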

MS2 coat protein [2] = test: apparent KD of MS2 coat protein, switch OFF state (with FMN for OFF switches, without FMN for ON switches); designed switch direction (-1 OFF switch, 1 ON switch): -1; higher = weaker reporter binding; settings: FMN input: 0 or 200 uM; Eterna round: R93 (includes R88 designs)
Summary of the method: as §1

Sequence | apparent KD of MS2 coat protein (MS2 coat protein [1]) [nM] | apparent KD of MS2 coat protein (MS2 coat protein [2]) [nM]
AACAGUACAGGAUAUACAUGAGGAUCACCCAUGUGAACUUCAAGUGCCGUAGCACGAAGUAGAAGGGUACUGGA | 63.4 | 497
AAUGGUGGAGGAUAUACAUGAGGAUCACCCAUGUAAAUCACACAUGUGGUCAAAGCAUGUAGAAGGCCACUAAA [Ex 3May 52] | 86 | 84.9
AAGAAACAUGAGGAUCACCCAUGUCAGGAUAUCCAAGAAAGAAAGAAAGAAAGAAGAAGGAGAAGGGACAAAGG [Lucius Antonius Pedo] | 64.8 | 67.3
GAUAAACAUGAGGAUCACCCAUGUAAGGAUAUGCGCUAACUAACUAACUAACUAACUAGCAGAAGGUACACUAC [The End] | 24.4 | 26.5
CUCAUGUCAGGAUAUCAGUAGUAAAAAAAAAAAAUUACUACUGAGAAGGGACAUGAGGAUCACCCAUGUCCAUU [EX4 304: Super Stable 4] | 53 | 36.9
AAAAAGGCAGGAUAUACAUGAGGAUCACCCAUGUUUUAAAAAAAAAAAAAAAAAAAAAGUAGAAGGGCCAAAAA [Ex 3.1] | 52.3 | 39.7
AAGAAGGUAGGAUAUACAUGAGGAUCACCCAUGUAAAAGAAAGAAGGGAAAGAGAAAAGUAGAAGGACCAAGAA [Rudamon] | 33.4 | 55.3
AAAAAGUGAGGAUAUGUCAAAAGUCACAAAAGUGACAAAAGACAGAAGGCACAUGAGGAUCACCCAUGUGAGGG [Mod of Eli - Late G + early G segment 4] | 110 | 103
AGUGAGUCAGGAUAUUCGUGAAGAAUAAAAGAAAUAACAACGAAGAAGGGACAUGAGGAUCACCCAUGUACACA [May 57] | 33.6 | 25
AAUUAGUGAGGAUAUACGGGAGGGAGGGAGGGAGGGAGGGAGUAGAAGGCACAUGAGGAUCACCCAUGUAAUUA [The West [Loop] is Red] | 20.8 | 49.9
AAAUGACUAGGAUAUACAUGAGGAUCACCCAUGUGUAUAAAUAAAUACACAAAAGAAAGUAGAAGGAGUCAAAA [Ex 3 May 14] | 15.8 | 88.2
AGGGAACAUGAGGAUCACCCAUGUGAGGAUAUGCUAUGGAAAAUAAAAAUAAAACAUAGCAGAAGGCAUAAAAA [Denovo 10] | 52.1 | 49.5
AAUAUGGGAGGAUAUGCAUAGAUAAAGAAACAUGUUAAAACACAUGAGGAUCACCCAUGUAGAAGGCCCAUAUA [AJ 10] | 103 | 335
GAGAAUGAAGGAUAUACAUGAGGAUCACCCAUGUAAGAGAAAGAGGGAAAAGAGAAAAGUAGAAGGUCAAAGAG [Ruby 73] | 23.8 | 26
AGAAUACAUGAGGAUCACCCAUGUGAGGAUAUGCAGAUAAAAAUAAAAUAAAAUAAAUGCAGAAGGCACGAAAG [EX 1 May 21] | 37.1 | 86.1
AAUAAGUCAGGAUAUGCGAAUAGAAGAUAAGAUACCCAAAAGCAGAAGGGACAUGAGGAUCACCCAUGUAAAUA [JR_Exc004_Sub010] | 31.1 | 25.6
GCUUGGGAAGGAUAUACAUGAGGAUCACCCAUGUGAGAGAAAAAAGUGAGAAAGAAAAGUAGAAGGUCUUGAGG [salish99-ex3-84] | 69.5 | 69.4
AAGAAUGCAGGAUAUACAUGAGGAUCACCCAUGUAAAAGAAAGAAAAGGGAAAGAAAAGUAGAAGGGCAAAGAA [Satre-merenamun Tausret] | 29.6 | 30.5
AAGAAGACAGGAUAUACAUGAGGAUCACCCAUGUAAAAGAAAGAAAGGGAAAAGAAAAGUAGAAGGGUCAAGAA [Khepermaatre-setpenptah Ramesses X] | 37.6 | 51.4
AAAAAAAGAGGAUAUACGAACAUGUCGAAAGACGUGAAGGGACAUGAGGAUCACCCAUGUAGAAGGUUUAAAAA [Mat - Exclusion 2 - JL mod - D83] | 28.5 | 14.6

Sequence | apparent KD of MS2 coat protein (MS2 coat protein [1]) [nM] | apparent KD of MS2 coat protein (MS2 coat protein [2]) [nM]
AAAUAGGCAGGAUAUACAUGAAAAUUAAAAAAAAAAAAAAAACAUGAGGAUCACCCAUGUAGAAGGGUCAAAAA [Exclusion 2 - Omei 2] | 74.2 | 80.3
CUCUUGUCAGGAUAUGUAAGAAAAGAAAAGAAAGAAAAGAAACAGAAGGGACAUGAGGAUCACCCAUGUAAGAA [EteRNA is fun!] | 78.9 | 53.1
AAAAGUCGAGGAUAUGCAAAAUGAUUGCGAAAGCAAUCAAAACAUGAGGAUCACCCAUGUAGAAGGCGACAAAA [Fiskers Exclusion 2 D3] | 19.6 | 11.1
AGUCAUACAGGAUAUACAUGAGGAUCACCCAUGUUUAUCCUAAAAAAAUAAAAAACAUGUAGAAGGGUAUGACA [EX3 216: Super Stable 16] | 12.9 | 13.7
AACAGUACAGGAUAUACAUGAGGAUCACCCAUGUAAAAAUAAUAAAAGGGCUCAAAAAGUAGAAGGGUACUGGA [Moding Maslow revisited (73) 15] | 31.2 | 66.3
CUCAUGUCAGGAUAUGUAGCAUGAUACGAAAGUAUCAUGCUACAGAAGGGACAUGAGGAUCACCCAUGUAAAAA [Ex4: 942] | 20.2 | 33.9
GAUUAGGUAGGAUAUACAUGAGGAUCACCCAUGUAGGAAAAAAGCUACGAAAAAGAAUGUAGAAGGACCUAAAG [Mat - Exclusion 3 - Mayanna mod - D105] | 20.5 | 22.9
AAAAAGCUAGGAUAUACGAAAAAAAAGGGUAAAAAAUAAAAACAUGAGGAUCACCCAUGUAGAAGGAGCAAAAA [Mat - Exclusion 2 - Tesla mod - D36] | 43.2 | 77.9
AAGAAGUGAGGAUAUACAUGAAAGAAAGAAAAGAAAAGAAAACAUGAGGAUCACCCAUGUAGAAGGCACAAGAA [EteRNA is fun!] | 28.7 | 27.6
AACAUGUGAGGAUAUAUAAGAAAAGAAAAGAAAGAAAAGAAAUAGAAGGCACAUGAGGAUCACCCAUGUAAGAA [EteRNA is fun!] | 30 | 26.2
AAGAAACAUGAGGAUCACCCAUGUGAGGAUAUGGAAGAAAGAAAGAAAGAAAGAAGAACCAGAAGGCACAAAGG [Publius Rubrius Barbarus] | 144 | 105
GAAAAGUUAGGAUAUACAGAUAAAAAAACGAAAAAAAAUCUGUAGAAGGAACAUGAGGAUCACCCAUGUAAAAA [Mat - Exclusion 4 - Mayanna - D104] | 30.7 | 15.5
AACAGUACAGGAUAUACAUGAGGAUCACCCAUGUGAGAAUUAAGCAGCGUAACACAAAGUAGAAGGGUAAUGGA [Ruby 19] | 39.9 | 43.9
AAAACGGUAGGAUAUACGAUUUGGAACUAGACCGAGGAACCACAUGAGGAUCACCCAUGUAGAAGGGCCAAAAA [EX2 Malc#17] | 15.6 | 10.7
AAAAAACAUGAGGAUCACCCAUGUGAGGAUAUCGAAAAGAAAAGAAAAGAAAGAAGAACGAGAAGGCACAAGAA [Sneferu] | 36.6 | 48
AGAAAGCUAGGAUAUACCUGGAGGGUUCUAAAUGAAAUAAAACAUGAGGAUCACCCAUGUAGAAGGAGCCCGAA [Sobire] | 18.3 | 16.6
AGGAAACAUGAGGAUCACCCAUGUAAGGAUAUGAACGAAAAUAAAUAAAAAUAAAAGUUCAGAAGGUACAAAAA [66%, Wbt, 6] | 29.8 | 52.7
AUAAAGUCAGGAUAUGUAAAAAUAACGAAAGUUAUAAAUAAACAGAAGGGACAUGAGGAUCACCCAUGUAAAAU [Meechl MS2 Ex4] | 47 | 41.2
AACAGUACAGGAUAUACAUGAGGAUCACCCAUGUCACAACAAAGCAGCGCAACACAAAGUAGAAGGGUAAUGGA [Ruby 15] | 34.6 | 40.4
AAGAAGGCAGGAUAUACAUGAAAGAAAGAAAAGAAAAGAAAACAUGAGGAUCACCCAUGUAGAAGGGCCAAGAA [EteRNA is fun!] | 29.8 | 109
